Reference: patent US8962819B2, “Anti-C5 alpha antibodies” (Adienne S.A., priority 2002, dated 2015)
Entries after “also recorded” stand apart in the source; their conditions may differ.

Experiments:
[1] = molecular target: T1, C5 hemolytic activity in mouse serum (Mus musculus, UniProt P06684); assay: Inhibition of C5 hemolytic activity in serum; assay type: biochemical; conditions: FIG. 5D
T1 construct: from tissue; host or cells: mouse serum
Method: (§1) Measurements were performed as described in example 8, using sera from human (panel A), rat (panel B), rabbit (panel C), mouse (panel D). Since the amino acid sequence corresponding to the cleavage site of convertase on the C5 alpha chain is conserved in several animal species, it was furthermore evaluated, by hemolytic assay, the ability of TS-A12/22 antibody to inhibit conversion of C5 to C5a also in rabbit, mouse and rat sera.

[2] = test system: C5 hemolytic activity in rabbit serum; assay: Inhibition of C5 hemolytic activity in serum; assay type: biochemical
Method: as §1

[3] = molecular target: T2, C5 hemolytic activity in rat serum (Rattus norvegicus, UniProt P08650); assay: Inhibition of C5 hemolytic activity in serum; assay type: biochemical
T2 construct: from tissue; host or cells: rat serum
Method: as §1

[4] = molecular target: T3, C5 hemolytic activity in human serum (Homo sapiens, UniProt P01031); assay: Inhibition of C5 hemolytic activity in serum; assay type: biochemical; conditions: FIG. 5A
T3 construct: from tissue; host or cells: human serum
Method: as §1

[5] = molecular target: T4, factor C5 (Homo sapiens, UniProt P01031); assay: Surface plasmon resonance (BIACORE 2000) on C5 immobilized on chip; assay type: binding; conditions: TS-A12/22 versus TS-A12 after VL chain shuffling
T4 construct: C5 alpha and beta subunits were obtained by incubating 50 μg of C5; purchased Quidel
Method: The binding affinity of the Tsa-12 antibody, purified by means of FPLC on Superdex 75 (Pharmacia), for factor C5 was measured by means of BIACORE™ 2000 (a system that generates unique data on the interactions between proteins and other molecules). The microchip (CM5, Biacore) was prepared by direct conjugation of the C5 antigen with amines (20 μg/ml in 10 mM Sodium Acetate pH 4.5). The final level of immobilisation turned out to be approximately 1000 RU (Resonance Units). Association and dissociation of antibody molecules from the bio-chip were measured using an optical detection system (Surface Plasmon Resonance). The analysis was carried out at 25° C., at a flow of 15 μl/min, using 4 different scFv concentrations in the range comprised between 100-300 nM, in PBS, 0.005% P20 (Biacore). The binding curves were interpolated 1:1 according to the model of Langmuir, using the dedicated software termed BIAevaluation (version 3.5) with correction for the mass transfer. In order to increase the affinity, the TS-A12 antibody was subjected to substitution (“shuffling”) of the VL light chains. For this purpose the phagemid DNA was cut with BssHII and SaII to excise the VL region. This region was substituted with all the repertoire of VL chains of a preimmune library (Sblattero, D., and Bradbury A., 2000, Nat. Biotechnol. 18:75) that was prepared with same enzymes. […]

[6] = test system: rat joint; assay: Rat model of antigen-induced (BSA) arthritis, intra-articular scFv; assay type: in vivo
Method: Polymorphonuclear Leukocytes (PMN), isolated from intra-articular wash out of rats with arthritis induced by instillation of BSA (mBSA), were incubated with antibody TS-A12/22 or with an unrelated antibody, as described in example 10.
Saline solution: control without induced arthritis; mBSA: BSA-induced arthritis, untreated; unrelated: BSA-induced arthritis, treated with unrelated scFv antibody; Ts-a12/22: BSA-induced arthritis, treated with the antibody of the invention.
Histological sections of joints from rats treated with intra-articular injection of saline (A), BSA (B), BSA with TS-A12/22 (C) and BSA with the unrelated antibody (D) were analysed by immunofluorescence for the presence of complement components C3 and C9, as described in example 10.
In order to test the effect of the TS-A12/22 antibody in vivo, the influx of PMN was measured in the rat joint injected with BSA, BSA and TS-A12/22 or BSA and unrelated antibody. […] Moreover the deposition of the C3 and C9 complement components was checked on a histological section of the joint of the back paw of treated rats, by immunofluorescence with specific antisera and fluorescein-conjugated secondary antibody (FIG. 7). […] It was thus confirmed that the TS-A12/22 antibody inhibits the complement cascade at a step intermediate between C3 and C9 and therefore at the level of the conversion of C5 to C5a+C5b.

[7] = molecular target: T5, C5 (Homo sapiens, UniProt P01031); assay: ELISA of C5a released after cleavage of C5 by C5 convertase; assay type: biochemical; conditions: FIG. 1A, classical pathway
T5 construct: C5 alpha and beta subunits were obtained by incubating 50 μg of C5; purchased Quidel
Method: Panel A) The ELISA assay measures the amount of C5a fragment released in the supernatant after enzymatic cleavage of C5, using antibodies anti-C5 as described in example 6. […] Sheep erythrocytes sensitised with antibodies and coated until the C3b (EAC1-3b) complement step were added to the mixture of TS-A12 or TS-A12/22 and C5, and the mixture was further incubated for 30 minutes at 37° C. (panel B).
The obtained anti-C5 scFv fragments were further characterised for their ability to inhibit the hemolytic activity of C5 or, in other words, to block conversion of the C5 component to C5a. […] At the end of this procedure, cell lysis was measured as percentage of the control of total lysis in distilled H2O (see FIG. 1, panel B). The inhibition of C5a and TCC production by the scFv TS-A12 and TS-A12/22 was measured by means of ELISA using the monoclonal antibody 17/5 as the capture antibody and antibody G25/2 as detection antibody according to what has been described in Opperman et al., 1991, Complement Inflamm. […] The presence of TCC was measured using antibody aE11 as the capture antibody and a biotinylated anti-C5 antibody (SIGMA-ALDRICH®) followed by alkaline phosphatase-conjugated streptavidin, as described by Tedesco et al. (1997, J Exp. Med. 185:1619).

T2 sequence (P08650 679-1681 limits assumed): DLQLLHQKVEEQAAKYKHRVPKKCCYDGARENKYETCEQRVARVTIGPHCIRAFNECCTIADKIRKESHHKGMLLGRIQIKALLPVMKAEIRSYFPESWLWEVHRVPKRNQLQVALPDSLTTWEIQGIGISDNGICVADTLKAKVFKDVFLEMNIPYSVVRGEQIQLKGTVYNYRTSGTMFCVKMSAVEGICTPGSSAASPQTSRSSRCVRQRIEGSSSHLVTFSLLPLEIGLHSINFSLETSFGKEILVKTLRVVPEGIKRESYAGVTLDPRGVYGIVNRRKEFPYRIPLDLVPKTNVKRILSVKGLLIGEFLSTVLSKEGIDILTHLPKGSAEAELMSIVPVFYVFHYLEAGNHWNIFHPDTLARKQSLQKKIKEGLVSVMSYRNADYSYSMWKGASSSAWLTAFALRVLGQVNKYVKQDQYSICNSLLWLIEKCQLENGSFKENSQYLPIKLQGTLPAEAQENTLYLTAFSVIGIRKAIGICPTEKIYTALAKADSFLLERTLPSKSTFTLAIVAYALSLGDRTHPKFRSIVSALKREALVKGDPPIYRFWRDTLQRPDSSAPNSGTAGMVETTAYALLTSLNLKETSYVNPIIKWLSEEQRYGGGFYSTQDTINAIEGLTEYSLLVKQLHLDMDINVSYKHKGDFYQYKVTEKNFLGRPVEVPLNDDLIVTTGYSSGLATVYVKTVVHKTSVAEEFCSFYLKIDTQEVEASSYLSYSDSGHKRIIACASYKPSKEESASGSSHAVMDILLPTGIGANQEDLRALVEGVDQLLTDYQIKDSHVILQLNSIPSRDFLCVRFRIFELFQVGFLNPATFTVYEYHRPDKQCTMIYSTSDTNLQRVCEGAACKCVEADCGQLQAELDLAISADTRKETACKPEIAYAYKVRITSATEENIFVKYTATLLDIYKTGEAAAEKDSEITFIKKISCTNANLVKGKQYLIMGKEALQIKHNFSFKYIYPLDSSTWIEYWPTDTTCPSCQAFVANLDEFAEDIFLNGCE
T2 sequence (P08650 19-674 limits assumed): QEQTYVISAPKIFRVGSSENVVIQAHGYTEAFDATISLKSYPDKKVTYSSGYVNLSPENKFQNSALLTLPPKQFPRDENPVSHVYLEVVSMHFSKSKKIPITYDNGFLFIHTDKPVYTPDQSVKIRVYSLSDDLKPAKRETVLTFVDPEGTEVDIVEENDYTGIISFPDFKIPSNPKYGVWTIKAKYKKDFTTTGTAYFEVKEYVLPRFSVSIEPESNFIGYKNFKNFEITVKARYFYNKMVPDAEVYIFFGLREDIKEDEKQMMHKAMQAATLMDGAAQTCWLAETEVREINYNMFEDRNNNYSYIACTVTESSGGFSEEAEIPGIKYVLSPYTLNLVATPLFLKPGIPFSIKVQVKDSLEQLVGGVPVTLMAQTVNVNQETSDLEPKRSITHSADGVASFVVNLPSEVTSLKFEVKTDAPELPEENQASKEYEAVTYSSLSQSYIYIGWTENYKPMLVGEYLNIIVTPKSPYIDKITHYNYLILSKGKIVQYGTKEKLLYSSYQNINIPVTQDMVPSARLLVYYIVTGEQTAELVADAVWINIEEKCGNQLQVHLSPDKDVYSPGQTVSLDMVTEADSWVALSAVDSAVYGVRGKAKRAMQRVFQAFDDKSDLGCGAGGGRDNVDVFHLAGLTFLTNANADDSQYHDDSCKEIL
T5 sequence (P01031 678-1676 limits assumed): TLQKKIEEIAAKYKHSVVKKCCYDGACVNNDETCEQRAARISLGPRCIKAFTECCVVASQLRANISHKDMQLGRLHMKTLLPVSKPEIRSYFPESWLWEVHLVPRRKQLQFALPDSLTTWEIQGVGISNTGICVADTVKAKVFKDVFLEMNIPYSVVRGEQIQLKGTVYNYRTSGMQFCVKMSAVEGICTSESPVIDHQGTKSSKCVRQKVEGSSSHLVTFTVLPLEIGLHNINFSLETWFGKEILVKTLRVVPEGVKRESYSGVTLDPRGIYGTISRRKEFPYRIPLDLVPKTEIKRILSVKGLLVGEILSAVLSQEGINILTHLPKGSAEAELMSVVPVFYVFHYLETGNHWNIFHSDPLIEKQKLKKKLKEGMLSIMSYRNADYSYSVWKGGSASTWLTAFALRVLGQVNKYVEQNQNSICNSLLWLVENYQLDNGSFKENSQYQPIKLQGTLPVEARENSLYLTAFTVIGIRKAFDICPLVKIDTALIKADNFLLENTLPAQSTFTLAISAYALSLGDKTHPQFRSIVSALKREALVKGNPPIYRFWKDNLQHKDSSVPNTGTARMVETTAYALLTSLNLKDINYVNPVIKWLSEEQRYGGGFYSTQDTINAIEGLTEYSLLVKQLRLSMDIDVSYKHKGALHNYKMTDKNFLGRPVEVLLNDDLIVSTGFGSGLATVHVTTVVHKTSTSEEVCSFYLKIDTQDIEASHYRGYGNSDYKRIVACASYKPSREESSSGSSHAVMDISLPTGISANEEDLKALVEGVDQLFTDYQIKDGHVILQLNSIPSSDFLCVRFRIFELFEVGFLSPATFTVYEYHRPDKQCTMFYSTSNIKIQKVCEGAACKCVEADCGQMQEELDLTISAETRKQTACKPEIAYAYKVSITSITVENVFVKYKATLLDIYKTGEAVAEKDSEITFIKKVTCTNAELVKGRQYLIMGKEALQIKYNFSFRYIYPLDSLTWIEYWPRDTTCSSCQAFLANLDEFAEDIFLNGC
T5 sequence (P01031 19-673 partner limits assumed): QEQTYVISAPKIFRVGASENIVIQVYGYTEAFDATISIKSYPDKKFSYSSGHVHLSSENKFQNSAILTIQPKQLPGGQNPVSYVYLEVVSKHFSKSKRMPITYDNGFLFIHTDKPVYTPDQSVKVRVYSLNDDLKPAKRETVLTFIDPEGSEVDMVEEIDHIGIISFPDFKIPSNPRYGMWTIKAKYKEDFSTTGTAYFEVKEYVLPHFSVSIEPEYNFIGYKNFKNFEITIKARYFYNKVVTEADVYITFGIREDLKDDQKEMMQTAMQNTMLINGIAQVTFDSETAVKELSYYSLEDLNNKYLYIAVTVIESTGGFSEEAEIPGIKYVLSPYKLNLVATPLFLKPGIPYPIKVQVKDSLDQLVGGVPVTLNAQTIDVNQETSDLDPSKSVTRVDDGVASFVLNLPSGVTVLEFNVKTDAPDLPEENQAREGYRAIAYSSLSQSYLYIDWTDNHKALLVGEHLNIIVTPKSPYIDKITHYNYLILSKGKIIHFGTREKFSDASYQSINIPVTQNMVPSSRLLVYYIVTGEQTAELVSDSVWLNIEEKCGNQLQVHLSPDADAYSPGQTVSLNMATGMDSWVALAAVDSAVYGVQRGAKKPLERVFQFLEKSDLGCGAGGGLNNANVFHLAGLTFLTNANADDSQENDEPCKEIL
T3 sequence (P01031 678-1676 limits assumed): as the sequence (P01031 678-1676 limits assumed) above
T3 sequence (P01031 19-673 partner limits assumed): as the sequence (P01031 19-673 partner limits assumed) above
T4 sequence (P01031 678-1676 limits assumed): as the sequence (P01031 678-1676 limits assumed) above
T4 sequence (P01031 19-673 partner limits assumed): as the sequence (P01031 19-673 partner limits assumed) above

B1: TS-A12/22: anti-C5 scFv obtained from TS-A12 by VL chain shuffling; VH3/V-48 and Vλ3/V2-14; amino acid sequence SEQ ID NO:6 (protein, listed as Homo sapiens)
scFv: DIRMTQSPDSLAVSLGERATINCKSSQSVLYSSNNKNYLAWYQQKPGQPPKLLIYWASTRESGVPDRFSGSGSGTDFTLTISSLQAEDVAVYYCQQYYSTPQLTFGGRTKVDIKSGGSTITSYNVYYTKLSSSGTQVQLQQSEGGVVQPGRSLRLSCAASGFTFSSYGMNWVRQAPGKGLEWVSYISSSSSTIYYADSVKGRFTISRDNSKNTLYLQMNSLRAEDTAVYYCARGPGMDVWGQGTTVTVSS
In the case of B1, the “inhibition of hemolytic activity in serum” value (“inhibition … in serum” for short) [1] is reported as “capable of inhibiting”, the “efficiency of inhibition compared with human serum” value [2] is reported as “higher” and the “inhibition … in serum” value ([2]; FIG. 5C) is reported as “capable of inhibiting”. The “efficiency of inhibition compared with human serum” value [3] was “practically similar to that of human serum; also recorded: higher”, the “inhibition … in serum” value ([3]; FIG. 5B) was “capable of inhibiting” and the “inhibition … in serum” value [4] was “capable of inhibiting”. For the same molecule, the “increment of molar affinity” value [5] was “approximately one order of magnitude”, the “deposition of C3 in the joint (immunofluorescence)” value ([6]; FIG. 7) was “remained unchanged; also recorded: does not affect” and the “deposition of C9 in the joint (immunofluorescence)” value ([6]; FIG. 7) was “strongly inhibited; also recorded: significantly reduces”. For the same molecule, the “number of PMN in the joint wash out liquid” value ([6]; versus BSA or BSA and unrelated antibody, FIG. 6) was “significantly reduced; also recorded: drastically reduced” and the “inhibition of formation of C5a” value [7] was “inhibit almost completely”.
